Results published in patent publication US20240343800A1 (Merck KGaA, published 2024).

Tests used:
[1] = molecular target: T1, human ROR1 (on cells) (human, UniProt Q01973 30-937); test: cell-based or functional assay
[2] = molecular target: T1, human ROR1 (on cells); test: cell-based or functional assay; remark: listed apart in the source
[3] = molecular target: T1, human ROR1 (on cells); test: flow cytometry, ROR1+ MDA-MB-231 cells
Method: (§1) After 15-minutes of incubation at room temperature, the cells were washed twice with 200 μL of PBS by centrifugation at 500×g for 5 minutes at room temperature and resuspended in […] of 10% goat serum in BD staining buffer (BD Biosciences, Cat No: 554657). […] The plates were then covered with foil to avoid direct light and incubated for 60 minutes at 4° C. […] After incubating for 30 minutes at 4° C., the cells were washed twice with 200 μL of PBS by centrifugation at 500×g for 5 minutes at room temperature and resuspended into 100 μL of fixation buffer (BioLegend, Cat No: 420801). The samples were then analyzed on a flow cytometer for binding signal using FlowJo software. ROR and CD3 binding EC₅₀s (concentration vs mean fluorescence intensity (MFI)) for reference molecules and test bispecific TCEs were obtained using 4-parameter non-linear regression curve fitting in GraphPad Prism.

[4] = molecular target: T2, mouse ROR1 (on 4T1 cells engineered to overexpress it) (mouse, UniProt Q9Z139 30-937); test: flow cytometry, 4T1 cells overexpressing mouse ROR1
T2 construct: whole, on cells; also called muROR1; mROR1
Method: as §1

[5] = molecular target: T1, human ROR1 (on cells); test: cell-based or functional assay; remark: listed apart in the source
[6] = molecular target: T3, cynomolgus CD3 (on cynomolgus pan-T cells) (cynomolgus, UniProt Q95LI5 22-198); test: flow cytometry, cynomolgus pan-T cells
T3 construct: whole, on cells
T3 sequence (Q95LI5 22-198): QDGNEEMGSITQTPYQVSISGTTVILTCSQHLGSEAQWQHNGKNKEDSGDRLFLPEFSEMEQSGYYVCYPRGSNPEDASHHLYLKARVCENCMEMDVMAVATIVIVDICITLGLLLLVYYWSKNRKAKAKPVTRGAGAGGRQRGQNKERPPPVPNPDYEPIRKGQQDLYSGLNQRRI
Method: as §1

[7] = molecular target: T1, human ROR1 (on cells); test: cell-based or functional assay; remark: listed apart in the source
[8] = molecular target: T4, human CD3 (on Jurkat T cells or human CD8+ T cells) (human, UniProt P07766 23-207; P09693 23-182; P04234 22-171; P20963 22-164); test: flow cytometry, human CD8+ T cells
T4 construct: Entries are printed with signal peptides; also called huCD3; CD3ε
T4 sequence (P07766 23-207 limits assumed, chain 1 of 4): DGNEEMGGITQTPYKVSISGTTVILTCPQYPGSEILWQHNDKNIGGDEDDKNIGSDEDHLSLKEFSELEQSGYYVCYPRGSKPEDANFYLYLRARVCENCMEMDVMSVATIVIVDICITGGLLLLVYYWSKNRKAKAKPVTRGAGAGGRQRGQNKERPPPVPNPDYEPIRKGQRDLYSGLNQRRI
T4 sequence (P09693 23-182 limits assumed, chain 2 of 4): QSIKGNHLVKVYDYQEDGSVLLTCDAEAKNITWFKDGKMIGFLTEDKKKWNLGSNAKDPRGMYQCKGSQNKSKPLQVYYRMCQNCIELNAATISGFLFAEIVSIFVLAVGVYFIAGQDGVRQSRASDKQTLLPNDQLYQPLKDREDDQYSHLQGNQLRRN
T4 sequence (P04234 22-171 limits assumed, chain 3 of 4): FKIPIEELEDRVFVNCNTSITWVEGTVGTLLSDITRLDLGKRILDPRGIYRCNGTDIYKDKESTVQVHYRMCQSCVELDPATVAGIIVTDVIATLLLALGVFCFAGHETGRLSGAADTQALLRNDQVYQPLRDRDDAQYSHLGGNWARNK
T4 sequence (P20963 22-164 limits assumed, chain 4 of 4): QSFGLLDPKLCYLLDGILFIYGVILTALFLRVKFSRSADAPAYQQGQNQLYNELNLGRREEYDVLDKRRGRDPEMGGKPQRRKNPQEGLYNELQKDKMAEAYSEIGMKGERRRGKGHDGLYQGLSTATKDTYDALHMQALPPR
Method: as §1

[9] = molecular target: T2, mouse ROR1 (on 4T1 cells engineered to …); test: flow cytometry; reference: human ROR1 on MDA-MB-231 cells

B1: 82H02 TCE #2 (sequence optimized 82H02 bispecific TCE in Format 1A, high ROR1 / low CD3 affinity) (bispecific antibody)
heavy 1: EVQLVESGGGLVQPGGSLKLSCAASGFTFNTYAMNWVRQASGKGLEWVGRIRSKYNNYATYYADSVKGRFTISRDDSKNTLYLQMNSLKTEDTAVYYCVRHGNFGNSYVSWFAYWGQGTMVTVSSASTKGPSVFPLAPSSKSTSGGTAALGCLVKDYFPEPVTVSWNSGALTSGVHTFPAVLQSSGLYSLSSVVTVPSSSLGTQTYICNVNHKPSNTKVDKKVEPKSCDKTHTCPPCPAPEAAGGPSVFLFPPKPKDTLMISRTPEVTCVVVDVSHEDPEVKFNWYVDGVEVHNAKTKPREEQYNSTYRVVSVLTVLHQDWLNGKEYKCKVSNKALGAPIEKTISKAKGQPFRPEVHLLPPSREEMTKNQVSLTCLARGFYPKDIAVEWESNGQPENNYKTTPSRQEPSQGTTTFAVTSKLTVDKSRWQQGNVFSCSVMHEALHNHYTQKTISLSPGK
heavy 2: EIVLTQSPATLSLSPGERATLSCRASQSVSSYLAWYQQKPGQAPRLLIYDASNRATGIPARFSGSGSGTDFTLTISSLEPEDFAVYYCQQRSNWPPSTFGQGTRLEIKGGGGSGGGGSGGGGSGGGGSEVQLLESGGGLVQPGGSLRLSCAASGFTFTSYAMSWVRQAPGKGLEWVSTISGSGGGTYYTDSVKGRFTISRDNSKNTLYLQMNSLRAEDTAVYYCAQGSSIFDYWGQGTLVTVSSEPKSSDKTHTCPPCPAPEAAGGPSVFLFPPKPKDTLMISRTPEVTCVVVDVSHEDPEVKFNWYVDGVEVHNAKTKPREEQYNSTYRVVSVLTVLHQDWLNGKEYKCKVSNKALGAPIEKTISKAKGQPREPQVYTLPPPSEELALNELVTLTCLVKGFYPSDIAVEWLQGSQELPREKYLTWAPVLDSDGSFFLYSILRVAAEDWKKGDTFSCSVMHEALHNHYTQKSLDRSPGKGGGGSGGGGSGGGGSGGGGSEIVLTQSPATLSLSPGERATLSCRASQSVSSYLAWYQQKPGQAPRLLIYDASNRATGIPARFSGSGSGTDFTLTISSLEPEDFAVYYCQQRSNWPPSTFGQGTRLEIKGGGGSGGGGSGGGGSGGGGSEVQLLESGGGLVQPGGSLRLSCAASGFTFTSYAMSWVRQAPGKGLEWVSTISGSGGGTYYTDSVKGRFTISRDNSKNTLYLQMNSLRAEDTAVYYCAQGSSIFDYWGQGTLVTVSS
light: QTVVTQEPSLTVSPGGTVTLTCASSTGAVTTSNYANWVQQKPGQAPRALIGGTNKRAPGTPARFSGSLLGGKAALTLSGVQPEDEAEYYCALWYSNLWVFGGGTKLTVLGQPKAAPSVTLFPPSSEELQANKATLVCLISDFYPGAVTVAWKADSSPVKAGVETTTPSKQSNNKYAASSYLSLTPEQWKSHRSYSCQVTHEGSTVEKTVAPTECS
notes: also called 82H02 #2; 82H02 VL1.07x1F3.5-VH1.01-VL1.01
TDCC AUC, PBMCs: MDA-MB-231-0.2 [1]: 35700 | TDCC AUC, PBMCs: MDA-MB-231-0.4 [1]: 47600 | TDCC AUC, PBMCs: MDA-MB-231-0.6 [1]: 54100 | TDCC AUC, PBMCs: MDA-MB-231-1.3 [1]: 63700 | TDCC AUC, PBMCs: MDA-MB-231-7 [1]: 72000 | TDCC EC50, PBMCs: MDA-MB-231-0.2 [1]: 13.7 pM | TDCC EC50, PBMCs: MDA-MB-231-0.4 [1]: 12.5 pM | TDCC EC50, PBMCs: MDA-MB-231-0.6 [1]: 10.5 pM | TDCC EC50, PBMCs: MDA-MB-231-1.3 [1]: 8.96 pM | TDCC EC50, PBMCs: MDA-MB-231-7 [1]: 4.71 pM | TDCC Emax, PBMCs: MDA-MB-231-0.2 [1]: 37.5% | TDCC Emax, PBMCs: MDA-MB-231-0.4 [1]: 50.2% | TDCC Emax, PBMCs: MDA-MB-231-0.6 [1]: 56.8% | TDCC Emax, PBMCs: MDA-MB-231-1.3 [1]: 65.4% | TDCC Emax, PBMCs: MDA-MB-231-7 [1]: 74.1% | IFNγ release EC50, PBMCs: MDA-MB-231 [2]: 265 nM | Max IFNγ, PBMCs: MDA-MB-231 [2]: 1000 pg/mL | EC50 [3]: 0.72 nM | EC50 [4]: 2.24 nM | TDCC EC50, PBMCs: MDA-MB-231 [5]: 43.9 nM | EC50 [6]: 26.2 nM | IFNγ release AUC, PBMCs: MDA-MB-231-0.2 [7]: 1.55e+06 | IFNγ release AUC, PBMCs: MDA-MB-231-0.4 [7]: 2.03e+06 | IFNγ release AUC, PBMCs: MDA-MB-231-0.6 [7]: 9.77e+06 | IFNγ release AUC, PBMCs: MDA-MB-231-1.3 [7]: 4.49e+06 | IFNγ release AUC, PBMCs: MDA-MB-231-7 [7]: 4.68e+06 | IFNγ release EC50, PBMCs: MDA-MB-231-0.2 [7]: 192 pM | IFNγ release EC50, PBMCs: MDA-MB-231-0.4 [7]: 151 pM | IFNγ release EC50, PBMCs: MDA-MB-231-0.6 [7]: 97.7 pM | IFNγ release EC50, PBMCs: MDA-MB-231-1.3 [7]: 30.6 pM | IFNγ release EC50, PBMCs: MDA-MB-231-7 [7]: 26.5 pM | IFNγ release Emax, PBMCs: MDA-MB-231-0.2 [7]: 2270% | IFNγ release Emax, PBMCs: MDA-MB-231-0.4 [7]: 2670% | IFNγ release Emax, PBMCs: MDA-MB-231-0.6 [7]: 3670% | IFNγ release Emax, PBMCs: MDA-MB-231-1.3 [7]: 4850% | IFNγ release Emax, PBMCs: MDA-MB-231-7 [7]: 4970% | EC50 [8]: 19.8 nM | fold difference in apparent ROR1 binding affinity between human and mouse ROR1 [9]: ~3 fold
